In publication PMC3787845:

Assays:
[1] = biological target: His6-ChpT (Caulobacter crescentus); test: SEC
[2] = biological target: His6-ChpT-A41R (Caulobacter crescentus); test: SEC
[3] = biological target: His6-ChpT-D47A (Caulobacter crescentus); test: SEC
[4] = biological target: His6-ChpT-D60A (Caulobacter crescentus); test: SEC
[5] = biological target: His6-ChpT-G45R (Caulobacter crescentus); test: SEC
[6] = biological target: His6-ChpT-L48M (Caulobacter crescentus); test: SEC
[7] = biological target: His6-ChpT-L64D (Caulobacter crescentus); test: SEC
[8] = biological target: His6-ChpT-N63R (Caulobacter crescentus); test: SEC
[9] = biological target: His6-ChpT-S40V (Caulobacter crescentus); test: SEC
[10] = biological target: His6-ChpT-S44Y (Caulobacter crescentus); test: SEC
[11] = biological target: His6-ChpT-A41R (Caulobacter crescentus); test: SPR

In the case of His6-ChpT (natural protein), the stoichiometry N [1] is reported as 2.

His6-ChpT-A41R (natural protein) gave a stoichiometry N [2] of 2.

His6-ChpT-D47A (natural protein) showed a stoichiometry N [3] of 2.

His6-ChpT-D60A (natural protein) showed a stoichiometry N [4] of 2.

Molecule His6-ChpT-G45R (natural protein) has a stoichiometry N [5] of 2.

For His6-ChpT-L48M (natural protein), the stoichiometry N [6] was 2.

With His6-ChpT-L64D (natural protein) the stoichiometry N [7] was 2.

His6-ChpT-N63R (natural protein) showed a stoichiometry N [8] of 2.

In the case of His6-ChpT-S40V (natural protein), the stoichiometry N [9] is reported as 2.

For His6-ChpT-S44Y (natural protein), the stoichiometry N [10] was 2.

B1: CckA receiver domain (CckA-RD, amino acids 571–691) (domain or fragment)
chain: GRILFVEDEDAVRSVAARLLRARGYEVLEAADGEEALIIAEENAGTIDLLISDVIMPGIDGPTLLKKARGYLGTAPVMFISGYAEAEFSDLLEGETGVTFLPKPIDIKTLAERVKQQLQAA
For B1, the Kd [11] was 397 µM.
